# System: Escherichia coli TOP10
# Assay: shrunken log2 fold change of peptide-encoding DNA abundance (4.5 h post-induction vs induction); higher = less antimicrobial activity (less host growth inhibition)
# Details: time post-induction: 4.5 h; library: site-saturation at positions 5, 18, 19, 20
# 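Also: peptides expressed intracellularly from a pBAD plasmid library in pooled LB shake-flask culture, induced with 0.3% L-arabinose, DNA abundance read by NGS, three biological replicates, DESeq2 with apeglm shrinkage.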
row,Sequence,shrunken log2 fold change
1,RRIRERPPRLPRPRPRPMHIPRP,-0.185
2,RRIRERPPRLPRPRPRPMHKPRP,0.0621
3,RRIRERPPRLPRPRPRPMHTPRP,0.102
4,RRIRERPPRLPRPRPRPMITPRP,-0.0683
5,RRIRERPPRLPRPRPRPMKDPRP,0.13
6,RRIRERPPRLPRPRPRPMKMPRP,0.0259
7,RRIRERPPRLPRPRPRPMLGPRP,0.00848
8,RRIRERPPRLPRPRPRPMLQPRP,-0.161
9,RRIRERPPRLPRPRPRPMMVPRP,0.0544
10,RRIRERPPRLPRPRPRPMNCPRP,0.0528
11,RRIRERPPRLPRPRPRPMNGPRP,-0.0134
12,RRIRERPPRLPRPRPRPMNWPRP,0.0377
13,RRIRERPPRLPRPRPRPMNYPRP,-0.981
14,RRIRERPPRLPRPRPRPMPTPRP,-0.00177
15,RRIRERPPRLPRPRPRPMQRPRP,-0.00559
16,RRIRERPPRLPRPRPRPMRTPRP,0.0487
17,RRIRERPPRLPRPRPRPMTSPRP,-0.212
18,RRIRERPPRLPRPRPRPMTTPRP,-0.023
19,RRIRERPPRLPRPRPRPMVIPRP,-0.0351
20,RRIRERPPRLPRPRPRPMVNPRP,-0.0701
21,RRIRERPPRLPRPRPRPMWGPRP,-0.016
22,RRIRERPPRLPRPRPRPMYCPRP,-0.064

row,Sequence,shrunken log2 fold change
1,RRIRERPPRLPRPRPRPNANPRP,0.343
2,RRIRERPPRLPRPRPRPNARPRP,-0.0167
3,RRIRERPPRLPRPRPRPNCHPRP,-0.336
4,RRIRERPPRLPRPRPRPNCKPRP,-0.832
5,RRIRERPPRLPRPRPRPNCMPRP,-0.526
6,RRIRERPPRLPRPRPRPNDCPRP,-0.0231
7,RRIRERPPRLPRPRPRPNEAPRP,-0.0218
8,RRIRERPPRLPRPRPRPNEGPRP,-0.0857
9,RRIRERPPRLPRPRPRPNFHPRP,-0.382
10,RRIRERPPRLPRPRPRPNFNPRP,-0.376
11,RRIRERPPRLPRPRPRPNGWPRP,-0.00266
12,RRIRERPPRLPRPRPRPNHIPRP,-0.42
13,RRIRERPPRLPRPRPRPNIKPRP,-0.788
14,RRIRERPPRLPRPRPRPNLHPRP,0.504
15,RRIRERPPRLPRPRPRPNLWPRP,0.0252
16,RRIRERPPRLPRPRPRPNNLPRP,-1.05
17,RRIRERPPRLPRPRPRPNQKPRP,-0.108
18,RRIRERPPRLPRPRPRPNQPPRP,0.0495
19,RRIRERPPRLPRPRPRPNSEPRP,-0.391
20,RRIRERPPRLPRPRPRPNSKPRP,-0.863
21,RRIRERPPRLPRPRPRPNSQPRP,-0.389
22,RRIRERPPRLPRPRPRPNTFPRP,-0.388

row,Sequence,shrunken log2 fold change
1,RRIRERPPRLPRPRPRPNVNPRP,-0.34
2,RRIRERPPRLPRPRPRPNVVPRP,0.0366
3,RRIRERPPRLPRPRPRPNWFPRP,-0.0607
4,RRIRERPPRLPRPRPRPNWYPRP,-0.563
5,RRIRERPPRLPRPRPRPNYFPRP,-0.57
6,RRIRERPPRLPRPRPRPPCYPRP,-0.396
7,RRIRERPPRLPRPRPRPPECPRP,0.0263
8,RRIRERPPRLPRPRPRPPEDPRP,2.12
9,RRIRERPPRLPRPRPRPPFFPRP,0.0761
10,RRIRERPPRLPRPRPRPPFQPRP,0.016
11,RRIRERPPRLPRPRPRPPFTPRP,1.17
12,RRIRERPPRLPRPRPRPPGAPRP,0.573
13,RRIRERPPRLPRPRPRPPGKPRP,0.28
14,RRIRERPPRLPRPRPRPPHWPRP,0.223
15,RRIRERPPRLPRPRPRPPIQPRP,-0.27
16,RRIRERPPRLPRPRPRPPIWPRP,-0.0729
17,RRIRERPPRLPRPRPRPPKAPRP,0.312
18,RRIRERPPRLPRPRPRPPKVPRP,-0.0931
19,RRIRERPPRLPRPRPRPPLIPRP,-0.435
20,RRIRERPPRLPRPRPRPPLVPRP,-0.0197
21,RRIRERPPRLPRPRPRPPMNPRP,-0.82
22,RRIRERPPRLPRPRPRPPNKPRP,-0.243

row,Sequence,shrunken log2 fold change
1,RRIRERPPRLPRPRPRPPQRPRP,0.315
2,RRIRERPPRLPRPRPRPPQWPRP,0.0679
3,RRIRERPPRLPRPRPRPPVAPRP,0.658
4,RRIRERPPRLPRPRPRPPVKPRP,0.0254
5,RRIRERPPRLPRPRPRPPVNPRP,0.148
6,RRIRERPPRLPRPRPRPPVTPRP,-0.152
7,RRIRERPPRLPRPRPRPPWMPRP,-0.22
8,RRIRERPPRLPRPRPRPPWNPRP,-0.246
9,RRIRERPPRLPRPRPRPPYFPRP,-0.441
10,RRIRERPPRLPRPRPRPPYMPRP,-1.73
11,RRIRERPPRLPRPRPRPPYPPRP,-0.32
12,RRIRERPPRLPRPRPRPQCNPRP,0.117
13,RRIRERPPRLPRPRPRPQCTPRP,-0.012
14,RRIRERPPRLPRPRPRPQDGPRP,-0.113
15,RRIRERPPRLPRPRPRPQDIPRP,-0.135
16,RRIRERPPRLPRPRPRPQEAPRP,-0.018
17,RRIRERPPRLPRPRPRPQEFPRP,-0.0119
18,RRIRERPPRLPRPRPRPQEIPRP,0.0133
19,RRIRERPPRLPRPRPRPQFPPRP,-0.253
20,RRIRERPPRLPRPRPRPQFTPRP,-0.472
21,RRIRERPPRLPRPRPRPQIAPRP,0.0377
22,RRIRERPPRLPRPRPRPQIHPRP,-0.835

row,Sequence,shrunken log2 fold change
1,RRIRERPPRLPRPRPRPQKLPRP,-0.69
2,RRIRERPPRLPRPRPRPQLSPRP,0.1
3,RRIRERPPRLPRPRPRPQMQPRP,-0.173
4,RRIRERPPRLPRPRPRPQPCPRP,-0.312
5,RRIRERPPRLPRPRPRPQQFPRP,-0.0731
6,RRIRERPPRLPRPRPRPQRKPRP,0.0503
7,RRIRERPPRLPRPRPRPQTFPRP,-0.0695
8,RRIRERPPRLPRPRPRPQVAPRP,-0.366
9,RRIRERPPRLPRPRPRPQVFPRP,-0.0552
10,RRIRERPPRLPRPRPRPQWNPRP,-0.33
11,RRIRERPPRLPRPRPRPQWTPRP,-0.0833
12,RRIRERPPRLPRPRPRPQYEPRP,-0.624
13,RRIRERPPRLPRPRPRPQYWPRP,-0.617
14,RRIRERPPRLPRPRPRPRAIPRP,0.0706
15,RRIRERPPRLPRPRPRPRCSPRP,0.0243
16,RRIRERPPRLPRPRPRPRCYPRP,-0.138
17,RRIRERPPRLPRPRPRPREGPRP,0.46
18,RRIRERPPRLPRPRPRPRFCPRP,-0.0399
19,RRIRERPPRLPRPRPRPRFTPRP,1.87
20,RRIRERPPRLPRPRPRPRGDPRP,0.0639
21,RRIRERPPRLPRPRPRPRGWPRP,0.917

# Reference: the supplement of paper PMC9112550, “Optimization of the antimicrobial peptide Bac7 by deep mutational scanning” (BMC Biology, 2022)
